{"source": "patent US20250043302A1", "about": "“MUTATED HYDROXYPHENYLPYRUVATE DIOXYGENASE POLYPEPTIDE, AND CODING GENE AND USE THEREOF” (BEIJING DABEINONG BIOTECHNOLOGY CO., LTD., priority 2021, published 2025)", "key": {"[1]": {"tested_on": "Arabidopsis thaliana T1 plants", "experiment": "Isoxaflutole tolerance of transgenic Arabidopsis thaliana T1 plants (spray, bleached leaf area grade, damage score);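 for Scores: Weighted damage index from 0 to 100 where higher means more damage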", "format": "in vivo", "conditions": "for Classification and statistics of the grade of pesticide damage: Grade 0 / Classification and statistics of the grade of pesticide damage: Grade 1 / Classification and statistics of the grade of pesticide damage: Grade 2 / Classification and statistics of the grade of pesticide damage: Grade 3: number of plants", "procedure,_shortened": "(§1)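 T1 transformants selected by glufosinate; 18-day-old plants, with empty-vector and wild-type controls, sprayed with topramezone (25–200 g ai/ha), isoxaflutole (35–280 g ai/ha) or mesotrione (52.5–420 g ai/ha), water as 0×. Bleached leaf area fraction scored at 7 DAT as grades 0–3.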"}, "[2]": {"tested_on": "Arabidopsis thaliana T1 plants", "experiment": "Mesotrione tolerance of transgenic Arabidopsis thaliana T1 plants (spray, bleached leaf area grade, damage score)", "format": "in vivo", "parameters": "Scores: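 damage score 0-100 computed as Σ(N×S)/(T×M)×100 over grades 0-3 with higher meaning more damage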", "conditions": "for Resistance evaluation / Classification and statistics of the grade of pesticide damage: Grade 0 / Classification and statistics of the grade of pesticide damage: Grade 1 / Classification and statistics of the grade of pesticide damage: Grade 2 / Classification and statistics of the grade of pesticide damage: Grade 3 / Scores: 7 DAT, Table 3; for Classification and statistics of the grade of pesticide damage: Grade 0 / Classification and statistics of the grade of pesticide damage: Grade 1 / Classification and statistics of the grade of pesticide damage: Grade 2 / Classification and statistics of the grade of pesticide damage: Grade 3: number of plants; for Scores: pesticide damage score 0-100", "procedure,_shortened": "as §1"}, "[3]": {"conditions": "isoxaflutole 280 g ai/ha (4x field concentration), Arabidopsis thaliana T1 plants"}, "[4]": {"conditions": "isoxaflutole 280 g ai/ha (4x field concentration), Arabidopsis thaliana T1 plants, 16 plants"}, "[5]": {"conditions": "isoxaflutole 280 g ai/ha (4×), 7 DAT, Table 2"}, "[6]": {"conditions": "isoxaflutole 140 g ai/ha (2×), 7 DAT, Table 2"}, "[7]": {"conditions": "mesotrione 210 g ai/ha (two-fold field concentration)"}}, "data": [{"molecule": "AsHPPDm-F383W-02: nucleotide sequence encoding Avena sativa HPPD with F383W; vector DBN11729 (nucleic acid, AsHPPDm-F383W-02 Nucleotide Sequence, vector DBN11729) DNA: ATGCCACCTACTCCAGCTACAGCTACTGGTGCTGCTGCTGCTGCCGTTACTCCTGAGCACGCTGCCAGGTCATTCCCCAGGGTGGTTCGCGTGAACCCCAGATCTGATAGGTTCCCAGTTCTGAGCTTCCACCATGTTGAGCTGTGGTGCGCTGATGCTGCTTCTGCTGCTGGCAGGTTCTCTTTCGCTCTTGGTGCTCCACTCGCTGCTAGATCTGATCTGTCTACAGGAAATAGCGCTCATGCCTCACTCCTGCTTCGCTCAGGTGCTTTGGCCTTCCTCTTCACCGCTCCATATGCTCCCCCACCTCAGGAGGCTGCTACTGCTGCTGCTACAGCCTCCATTCCAAGCTTCTCAGCTGATGCCGCTAGAACCTTCGCTGCTGCTCATGGACTTGCCGTGAGGTCTGTTGGTGTTCGCGTGGCTGATGCTGCTGAGGCTTTCAGAGTTTCCGTTGCCGGCGGAGCTAGGCCAGCTTTCGCTCCTGCTGATTTGGGACATGGTTTCGGCCTGGCTGAGGTTGAGCTTTACGGTGACGTGGTTCTCCGCTTCGTGTCTTACCCAGATGAGACTGACCTGCCTTTCCTTCCCGGCTTCGAGAGAGTTTCCTCTCCTGGTGCCGTGGATTACGGCCTGACAAGGTTCGACCACGTGGTTGGAAACGTTCCCGAGATGGCTCCAGTGATCGATTACATGAAGGGCTTCCTTGGATTCCATGAGTTCGCCGAGTTCACTGCTGAGGACGTGGGAACCACTGAGTCCGGTTTGAACTCTGTGGTTCTCGCCAACAATTCTGAGGCTGTTTTGCTCCCTCTGAATGAGCCTGTGCATGGAACCAAGAGGAGAAGCCAGATTCAAACTTACCTGGAGTACCACGGTGGCCCTGGAGTTCAGCATATCGCCCTTGCTTCTAATGATGTGTTGCGCACACTCAGAGAGATGCGCGCCAGAACCCCCATGGGAGGTTTCGAGTTCATGGCCCCACCACAGGCTAAGTACTACGAGGGCGTTAGAAGGATTGCTGGAGACGTGTTGAGCGAGGAGCAGATCAAGGAGTGCCAAGAGCTGGGTGTTCTTGTGGATAGGGATGACCAGGGCGTTCTGCTTCAAATTTTCACTAAGCCAGTGGGCGACCGCCCTACATTCTGGCTTGAGATGATTCAAAGAATCGGCTGCATGGAGAAGGATGAGGTTGGACAGGAGTACCAAAAGGGCGGATGCGGTGGCTTCGGAAAGGGTAACTTCAGCGAGTTGTTCAAGTCAATCGAGGACTACGAGAAGAGCCTCGAGGTGAAGCAGTCAGTGGTTGCCCAAAAGTCCTGA", "values": [{"measurement": "Resistance evaluation", "setting": "[1]; [3]", "result": "Poorly resistant"}, {"measurement": "Scores", "setting": "[1]; [3]", "result": 42}, {"measurement": "Grade 0 (classification and statistics of the grade of pesticide damage; number of plants)", "setting": "[1]; [4]", "result": 4}, {"measurement": "Grade 1 (classification and statistics of the grade of pesticide damage; number of plants)", "setting": "[1]; [4]", "result": 4}, {"measurement": "Grade 2 (classification and statistics of the grade of pesticide damage; number of plants)", "setting": "[1]; [4]", "result": 8}, {"measurement": "Grade 3 (classification and statistics of the grade of pesticide damage; number of plants)", "setting": "[1]; [4]", "result": 0}, {"measurement": "Resistance evaluation", "setting": "[1]; [5]", "result": "poorly resistant (poorly resistant plants (scores 34-67))"}, {"measurement": "tolerance to isoxaflutole (resistance class)", "setting": "[1]; isoxaflutole at four-fold field concentration", "result": "poorly-resistant"}, {"measurement": "tolerance to isoxaflutole (resistance class)", "setting": "[1]; isoxaflutole at two-fold field concentration", "result": "moderately-resistant"}, {"measurement": "Classification and statistics of the grade of pesticide damage: Grade 0", "setting": "[1]; [6]", "result": 6}, {"measurement": "Classification and statistics of the grade of pesticide damage: Grade 1", "setting": "[1]; [6]", "result": 10}, {"measurement": "Classification and statistics of the grade of pesticide damage: Grade 2", "setting": "[1]; [6]", "result": 0}, {"measurement": "Classification and statistics of the grade of pesticide damage: Grade 3", "setting": "[1]; [6]", "result": 0}, {"measurement": "Classification and statistics of the grade of pesticide damage: Grade 0", "setting": "[1]; [5]", "result": 4}, {"measurement": "Classification and statistics of the grade of pesticide damage: Grade 1", "setting": "[1]; [5]", "result": 4}, {"measurement": "Classification and statistics of the grade of pesticide damage: Grade 2", "setting": "[1]; [5]", "result": 8}, {"measurement": "Classification and statistics of the grade of pesticide damage: Grade 3", "setting": "[1]; [5]", "result": 0}, {"measurement": "Scores", "setting": "[1]; pesticide damage score 0-100, isoxaflutole 140 g ai/ha (2×), 7 DAT, Table 2", "result": 21}, {"measurement": "Scores", "setting": "[1]; pesticide damage score 0-100, isoxaflutole 280 g ai/ha (4×), 7 DAT, Table 2", "result": 42}, {"measurement": "tolerance to mesotrione (in words)", "setting": "[2]; in vivo", "result": "different degrees of tolerance"}, {"measurement": "Resistance evaluation", "setting": "[2]; [7]", "result": "moderately"}, {"measurement": "Resistance evaluation", "setting": "[2]; mesotrione 420 g ai/ha (4×)", "result": "poorly resistant (poorly resistant plants (scores 34-67))"}, {"measurement": "tolerance to mesotrione (resistance class)", "setting": "[2]; mesotrione at four-fold field concentration", "result": "poorly-resistant"}, {"measurement": "tolerance to mesotrione (resistance class)", "setting": "[2]; mesotrione at two-fold field concentration", "result": "moderately-resistant"}, {"measurement": "Classification and statistics of the grade of pesticide damage: Grade 0", "setting": "[2]; [7]", "result": 4}, {"measurement": "Classification and statistics of the grade of pesticide damage: Grade 1", "setting": "[2]; [7]", "result": 10}, {"measurement": "Classification and statistics of the grade of pesticide damage: Grade 2", "setting": "[2]; [7]", "result": 1}, {"measurement": "Classification and statistics of the grade of pesticide damage: Grade 3", "setting": "[2]; [7]", "result": 1}, {"measurement": "Classification and statistics of the grade of pesticide damage: Grade 0", "setting": "[2]; mesotrione 420 g ai/ha (4×)", "result": 0}, {"measurement": "Classification and statistics of the grade of pesticide damage: Grade 1", "setting": "[2]; mesotrione 420 g ai/ha (4×)", "result": 2}, {"measurement": "Classification and statistics of the grade of pesticide damage: Grade 2", "setting": "[2]; mesotrione 420 g ai/ha (4×)", "result": 14}, {"measurement": "Classification and statistics of the grade of pesticide damage: Grade 3", "setting": "[2]; mesotrione 420 g ai/ha (4×)", "result": 0}, {"measurement": "Scores", "setting": "[2]; [7]", "result": 31}, {"measurement": "Scores", "setting": "[2]; mesotrione 420 g ai/ha (4×)", "result": 63}]}]}
